Test results reported in article PMC12691818.

Assays:
[1] = molecular target: Xenopus laevis PP1c (XePP1c) (Xenopus laevis (endogenous in oocytes))
[2] = molecular target: Xenopus laevis PP1c (XePP1c) (Xenopus laevis (endogenous in oocytes)); remark: listed apart in the source
[3] = molecular target: PfPP1c (Plasmodium falciparum Protein Phosphatase 1 catalytic subunit, recombinant) (Plasmodium falciparum) (UniProt Q8ILV1)
[4] = molecular target: Xenopus laevis PP1c (XePP1c) (Xenopus laevis (endogenous in oocytes)); remark: listed apart in the source

**Q.** With “PbRpt3 ATP-binding site mutant (HA-tagged PbRpt3 substituted for alanines in positions K188, D241, N288 and Q356) (natural protein)” as the substance, how does the percentage of GVBD of progesterone-treated Xenopus oocytes microinjected with PbRpt3 cRNA mutated for the ATP-binding sites (PbRpt3 1.7%, PG-treated oocytes 80.8%) [1] read?
**A.** 39.2 % GVBD

**Q.** “PbRpt3-KATA (HA-tagged PbRpt3 mutated 200-KVTF-203 to 200-KATA-203) (natural protein)” was tested. Which percentage of GVBD of progesterone-treated Xenopus oocytes microinjected with PbRpt3-KATA cRNA (control 80%) [2] did it give?
**A.** 26.6 % GVBD

**Q.** With “PfI2 (inhibitor of PP1c, Plasmodium falciparum) (natural protein)” as the substance, how does the PfPP1c phosphatase activity on pNPP; 37.5 to 600 pmol PfI2 with 1 µg PfPP1c; value at 600 pmol [3] read?
**A.** 60%

**Q.** With “PbRpt3-30 kDa (recombinant truncated PbRpt3, aa 131-395) (domain or fragment)” as the substance, how does the PfPP1c phosphatase activity on pNPP; 37.5 to 600 pmol PbRpt3-30 kDa preincubated with 1 µg PfPP1c; value at 600 pmol (% PP1c activity) [3] read?
**A.** > 400

**Q.** For “HA-tagged PbRpt3 protein (full-size 45 kDa native PbRpt3 translated from microinjected cRNA in Xenopus oocytes) (from UniProt A0A509AIQ8 1-395) (natural protein)”, which percentage of GVBD of progesterone-treated Xenopus oocytes microinjected with PbRpt3 cRNA (PG alone 86.7%) [4] is on record?
**A.** 1.7 % GVBD

**Q.** And the percentage of GVBD of progesterone-treated Xenopus oocytes microinjected with PbRpt3 cRNA (control 80%) [2]?
**A.** 1.7 % GVBD

**Q.** With “PbRpt3-KATA/RKAEA (HA-tagged PbRpt3 with both RVxF motifs mutated) (natural protein)” as the substance, how does the percentage of GVBD of progesterone-treated Xenopus oocytes microinjected with PbRpt3-KATA/RKAEA cRNA (control 80%) [2] read?
**A.** 76 % GVBD

**Q.** How did the percentage of GVBD of progesterone-treated Xenopus oocytes microinjected with PbRpt3-RKAEA cRNA (control 80%) [2] turn out when “PbRpt3-RKAEA (HA-tagged PbRpt3 mutated 305-RKIEF-309 to 305-RKAEA-309) (natural protein)” was run?
**A.** 23.3 % GVBD
